Substitutions are numbered along the chain they refer to. Numbers in names are those of the source.
T1: SIRP-α mouse BL6 (mouse (BL6), UniProt P97797 32-150, limits assumed)
T1 construct: Soluble analyte in SPR
T1 sequence (looked up): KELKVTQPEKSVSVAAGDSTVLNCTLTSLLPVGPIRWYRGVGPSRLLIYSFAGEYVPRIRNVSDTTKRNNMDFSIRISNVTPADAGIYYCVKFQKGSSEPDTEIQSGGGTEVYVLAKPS

T2: SIRP-α cynomolgus (cynomolgus, UniProt A0A2K5VYQ9 31-148)
T2 construct: Soluble analyte in SPR; also called cynomologous monkey SIRP-α
T2 sequence: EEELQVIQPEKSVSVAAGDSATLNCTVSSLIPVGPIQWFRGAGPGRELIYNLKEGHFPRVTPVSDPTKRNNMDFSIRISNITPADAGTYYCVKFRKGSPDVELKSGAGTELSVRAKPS

B1: Anti-SIRP-α antibody 136, light chain wt, heavy chain Mut (antibody, V domains shown)
VH: EVQLVESGGGVVQPGRSLRLSCAASGFTFSSYDVNWVRQAPGKGLEWVSLISGSGEIIYYADSVKGRFTISRDNSKNTLYLQMNSLRAEDTAVYYCAKENNRYRFFDDWGQGTLVTVSS
VL: ETVLTQSPGTLTLSPGERATLTCRASQSVYTYLAWYQEKPGQAPRLLIYGASSRATGIPDRFSGSGSGTEFTLTISSLQSEDFAVYYCQQYYDRPPLTFGGGTKVEIK
notes: Whole antibody; Heavy chain mut = D1E, R13Q, E16R, M34V, E43K, L111Q
B2: Anti-SIRP-α antibody 136, light chain Mut_S22T, heavy chain Mut (antibody, V domains shown)
VH: B1 VH
VL: B1 VL with T2I, T12S, E38Q
notes: Whole antibody
B3: Anti-SIRP-α antibody 136, light chain Mut, heavy chain Mut (antibody, V domains shown)
VH: B1 VH
VL: B1 VL with T2I, T12S, T22S, E38Q
notes: Whole antibody
B4: Anti-SIRP-α antibody 136, light chain Mut_I2T, heavy chain Mut_V34M (antibody, V domains shown)
VH: B1 VH with V34M
VL: B1 VL with T12S, T22S, E38Q
notes: Whole antibody
B5: Anti-SIRP-α antibody 136, light chain Mut_I2T, heavy chain Mut (antibody, V domains shown)
VH: B1 VH
VL: B1 VL with T12S, T22S, E38Q
notes: Whole antibody
B6: Anti-SIRP-α antibody 136, light chain wt, heavy chain wt (antibody, V domains shown)
VH: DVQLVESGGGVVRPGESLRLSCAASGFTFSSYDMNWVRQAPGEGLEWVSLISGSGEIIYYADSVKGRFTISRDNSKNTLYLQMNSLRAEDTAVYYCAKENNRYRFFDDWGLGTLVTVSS
VL: B1 VL
notes: Whole antibody
B7: Anti-SIRP-α antibody 136, light chain Mut, heavy chain wt (antibody, V domains shown)
VH: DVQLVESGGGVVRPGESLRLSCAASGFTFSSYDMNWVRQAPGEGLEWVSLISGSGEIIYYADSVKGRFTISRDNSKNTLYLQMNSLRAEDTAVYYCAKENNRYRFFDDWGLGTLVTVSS
VL: B1 VL with T2I, T12S, T22S, E38Q
notes: Whole antibody; Light chain mut = T2I, T12S, T22S, E38Q
B8: Anti-SIRP-α antibody 136, light chain Mut_S12T, heavy chain Mut (antibody, V domains shown)
VH: B1 VH
VL: B1 VL with T2I, T22S, E38Q
notes: Whole antibody
B9: Anti-SIRP-α antibody 136, light chain Mut_Q38E, heavy chain Mut (antibody, V domains shown)
VH: B1 VH
VL: B1 VL with T2I, T12S, T22S
notes: Whole antibody
B10: Anti-SIRP-α antibody 119, light chain Mut, heavy chain wt (antibody, V domains shown)
VH: EVQLLESGGGVVQPGGSLRLSCAASGFSFSNFAMTWVRQAPGEGLEWVSTIGSGDTYYADSVKGRFTISRDNSKNTLYLQMNSLRAEDTAVYYCAKDSTVSWSGDFFDYWGLGTLVTVSS
VL: EIVLTQSPATLSVSPGERATLSCRASQNVKNDLAWYQQKPGQAPRLLIYAARIRETGIPARFSGSGSGTEFTLTISSLQSEDFAVYYCQQYYDWPPFTFGGGTKVEIK
notes: Whole antibody; Light chain mut = F21L, R39K, E60A, T76S
B11: Anti-SIRP-α antibody 135, light chain wt, heavy chain Mut_V34M (antibody, V domains shown)
VH: B10 VH with L5V, N31I, F32Y, T35S, E43K, S53A, G54D, S101G, L112Q
VL: EIVLTQSPATLSVSPGERVTFSCRASQNVRSDIAWYQQKPGQAPRLLIYAASSRDTGIPDRFSGSGSGTDFTLTISSLQSEDFGVYYCQQYYDWPPFTFGGGTKVEIK
notes: Whole antibody
B12: Anti-SIRP-α antibody 135, light chain wt, heavy chain Mut (antibody, V domains shown)
VH: B10 VH with L5V, N31I, F32Y, M34V, T35S, E43K, S53A, G54D, S101G, L112Q
VL: B11 VL
notes: Whole antibody; Heavy chain mut = D1E, R13Q, E16G, M34V, E43K, L112Q
B13: Anti-SIRP-α antibody 119, light chain wt, heavy chain wt (antibody, V domains shown)
VH: B10 VH
VL: B10 VL with L21F, K39R, A60E, S76T
notes: Whole antibody (FreeStyle 293-FS, protein A purified)
B14: Anti-SIRP-α antibody 119, light chain Mut, heavy chain Mut (antibody, V domains shown)
VH: B10 VH with M34V, E43K, L112Q
VL: B10 VL
notes: Whole antibody
B15: Anti-SIRP-α antibody 135, light chain Mut, heavy chain wt (antibody, V domains shown)
VH: B10 VH with E1D, L5V, Q13R, G16E, N31I, F32Y, T35S, S53A, G54D, S101G
VL: B11 VL with F21L, D60A
notes: Whole antibody; Light chain mut = F21L, D60A
B16: Anti-SIRP-α antibody 119, light chain wt, heavy chain Mut (antibody, V domains shown)
VH: B10 VH with M34V, E43K, L112Q
VL: B10 VL with L21F, K39R, A60E, S76T
notes: Whole antibody; Heavy chain mut = D1E, E43K, L112Q, M34V
B17: Anti-SIRP-α antibody 119, light chain Mut, heavy chain Mut_V34M (antibody, V domains shown)
VH: B10 VH with E43K, L112Q
VL: B10 VL
notes: Whole antibody
B18: Anti-SIRP-α antibody 135, light chain wt, heavy chain wt (antibody, V domains shown)
VH: B10 VH with E1D, L5V, Q13R, G16E, N31I, F32Y, T35S, S53A, G54D, S101G
VL: B11 VL
notes: Whole antibody
B19: Hum1/AB21_HC_Mutall (antibody, V domains shown)
VH: EVQLVESGGGVVQPGGSLRLSCAASGFTFSSNAMSWVRQAPGKGLEWVAGISAGGSDTYYPASVKGRFTISRDNSKNTLYLQMNSLRAEDTAVYYCARETWNHLFDYWGQGTLVTVSS
VL: SYELTQPPSVSVSPGQTARITCSGGSYSSYYYAWYQQKPGQAPVTLIYSDDKRPSNIPERFSGSSSGTTVTLTISGVQAEDEADYYCGGYDQSSYTNPFGGGTKLTVL
notes: Whole antibody
B20: Hum9/AB21_HC_Mutall (antibody, V domains shown)
VH: B19 VH
VL: B19 VL with S26A, T45L, L46V, N56G
notes: Whole antibody

Assays:
Assay in all cases: SPR, antibody on GLC chip, SIRP as analyte
Human SIRPγ = target: T3, Human SIRPγ (human, UniProt Q9P1W8 29-147, limits assumed)
T3 construct: Soluble analyte in SPR
T3 sequence (Q9P1W8 29-147 limits assumed): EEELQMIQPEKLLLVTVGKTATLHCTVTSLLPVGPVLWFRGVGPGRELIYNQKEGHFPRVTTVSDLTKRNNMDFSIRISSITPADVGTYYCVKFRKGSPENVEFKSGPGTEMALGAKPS
Description: (§1) The running buffer was PBS pH 7.4 with 0.01% TWEEN-20 (PBST+). All analytes were used at their nominal concentrations as determined by A280 absorbance and using their molar calculated extinction coefficient. Analytes were injected in a “one-shot” kinetic mode as described (see, e.g., Bravman et al., Anal. Biochem. 2006, 358, 281-288).
(§2) For the method using a GLC chip, the analytes were injected and flowed over anti-SIRPα antibodies immobilized (˜1000 RUs) on GLC chips using Proteon Amine Coupling Kit. For the immobilization step, the GLC chip was activated with EDAC/Sulpho-NHS 1:1 (Biorad) diluted 1/100 for 300 s at 25 μL/min. Anti-SIRPα antibodies were diluted to 80 nM concentration in 10 mM sodium acetate buffer pH 4.5 and immobilized to the chip at 30 μL/min for 50 s. Chip was inactivated with ethanolamine for 300 s at 25 μL/min. The analytes (e.g., SIRP-α from different species, SIRP-β, SIRP-γ) were injected in a “one-shot” kinetic mode at nominal concentrations of 100, 33, 11, 3.7, 1.2, and 0 nM. Association times were monitored for 90 s at 100 uL/min, and dissociation times were monitored for 1200 s. The surfaces were regenerated with a 2:1 v/v blend of Pierce IgG elution buffer/4M NaCl.
(§3) Biosensor data were double-referenced by subtracting the interspot data (containing no immobilized protein) from the reaction spot data (immobilized protein) and then subtracting the response of a buffer “blank” analyte injection from that of an analyte injection. Double-referenced data were fit globally to a simple Langmuir model and the KD value was calculated from the ratio of the apparent kinetic rate constants (KD=kd/kₐ).

Human SIRPβ = target: T4, Human SIRPβ (human, UniProt O00241 30-148)
T4 construct: Soluble analyte in SPR
T4 sequence (O00241 30-148): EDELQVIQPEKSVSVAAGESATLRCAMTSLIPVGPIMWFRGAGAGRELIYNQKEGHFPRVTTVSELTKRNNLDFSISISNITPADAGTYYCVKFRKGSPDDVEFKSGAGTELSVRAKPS
Description: as §1, §2, §3

SIRP-α mouse BL6 = target: T1, SIRP-α mouse BL6
Description: as §1, §2, §3

SIRP-α human v2 = target: T5, SIRP-α human v2 (human, UniProt P78324 31-149, limits assumed)
T5 construct: Soluble analyte in SPR
T5 sequence (P78324 other isoform, or with tags, fused parts or gaps limits assumed): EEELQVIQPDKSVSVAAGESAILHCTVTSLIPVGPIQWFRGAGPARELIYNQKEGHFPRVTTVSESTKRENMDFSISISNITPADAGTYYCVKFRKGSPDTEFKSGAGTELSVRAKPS
Description: as §1, §2, §3

SIRP-α cynomolgus = target: T2, SIRP-α cynomolgus
Description: as §1, §2, §3

Binder	Kd (Human SIRPγ) [pM]	Kd (Human SIRPβ) [pM]	Kd (SIRP-α mouse BL6) [pM]	Kd (SIRP-α human v2) [pM]	Kd (SIRP-α cynomolgus) [pM]	binding result (SIRP-α mouse BL6)
B1	17000	3500	23000	1700		
B2	62000		13000	8300		
B3	1700		32000	20000		
B4	34000	2200	14000	17000	2100	
B5	40000	3200	15000	1800		
B6	24000	4400	13000	1600		
B7	20000		33000	17000		
B8	67000		16000	11000		
B9	19000		33000	13000		
B10	230			86	140	no binding (tested: 100 nM (highest analyte concentration))
B11	530	160		16	80	no binding (tested: 100 nM (highest analyte concentration))
B12	780			20	130	no binding (tested: 100 nM (highest analyte concentration))
B13	270	340		68	110	no binding (tested: 100 nM (highest analyte concentration))
B14	340	460		88	200	no binding (tested: 100 nM (highest analyte concentration))
B15	520			27	100	no binding (tested: 100 nM (highest analyte concentration))
B16				69	160	no binding (tested: 100 nM (highest analyte concentration))
B17	260	340		69	120	no binding (tested: 100 nM (highest analyte concentration))
B18	540			29	97	no binding (tested: 100 nM (highest analyte concentration))
B19	1	6.7	9500	4.6	29	
B20	35	57		120	220	

Reference: patent publication US20220096649A1 (TALLAC THERAPEUTICS, published 2022)
